Data reported in publication PMC12205087.

Assays:
[1] = molecular target: DREN-APAZ protein of the NbaSPARDA system, strep-tagged (Novosphingopyxis baekryungensis); experiment: cryo-EM structure; active complex: NbaSPARDA with gRNA and 21-nt tDNA (1:1.2:1.2), 0.2 mg/mL; filament, 3.18 Å
[2] = molecular target: DREN-APAZ protein of the NbaSPARDA system, strep-tagged (Novosphingopyxis baekryungensis); experiment: cryo-EM structure; substrate-bound complex: NbaSPARDA with gRNA, 21-nt tDNA and substrate ssDNA, 0.16 mg/mL; filament, 3.19 Å
[3] = molecular target: NbaSPARDA complex (heterodimer of NbaAgo and DREN-APAZ), wild type (Novosphingopyxis baekryungensis); experiment: cryo-EM structure; active complex: NbaSPARDA with gRNA and 21-nt tDNA (1:1.2:1.2), 0.2 mg/mL; filament, 3.18 Å
[4] = molecular target: NbaSPARDA complex (heterodimer of NbaAgo and DREN-APAZ), wild type (Novosphingopyxis baekryungensis); experiment: cryo-EM structure; guide-bound complex: NbaSPARDA with 20-nt 5'-phosphorylated gRNA (1:1.2, 25 °C, 15 min), 0.4 mg/mL, buffer F (20 mM Tris-HCl pH 8.0, 200 mM NaCl, 2 mM DTT, 2 mM MgCl2); 2.93 Å, C2 symmetry

stoichiometry N [1]	stoichiometry N [2]	stoichiometry N [3]	stoichiometry N [4]	Substance
4	4	–	–	DREN-APAZ protein of the NbaSPARDA system, strep-tagged (natural protein)
–	–	32 copies	2	NbaSPARDA complex (heterodimer of NbaAgo and DREN-APAZ), wild type
